Assay results reported in publication PMC3518043 (Biochemistry, 2012).
Ends that are not written are not given here.

B1: Histone H3 peptide (1-11) with C-terminal biotin (peptide, UniProt P68431 2-12, looked up)
peptide: ARTKQTARKST-biotin
B2: Histone H3 peptide (1-11) with C-terminal 6x-histidine (peptide, UniProt P68431 2-12, looked up)
peptide: ARTKQTARKST

What was measured:
[1] = molecular target: CHD5 tandem PHD1-2 (338-468), GST tag cleaved (UniProt Q8TDI0 338-468); test: SPR
[2] = molecular target: CHD5 PHD1 finger (338-393), GST tag cleaved (UniProt Q8TDI0 338-393); test: SPR
[3] = molecular target: CHD5 PHD2 finger (413-468), GST tag cleaved (UniProt Q8TDI0 413-468); test: SPR
[4] = molecular target: CHD5 tandem PHD1-2 as used in the ALPHA (UniProt Q8TDI0 338-468); test: AlphaScreen or HTRF
Chain of CHD5 tandem PHD1-2 as used in the ALPHA (Q8TDI0 338-468): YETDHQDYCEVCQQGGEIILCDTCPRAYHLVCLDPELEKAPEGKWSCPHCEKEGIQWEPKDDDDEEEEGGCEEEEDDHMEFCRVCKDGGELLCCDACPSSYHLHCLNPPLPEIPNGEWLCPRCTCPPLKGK

Chain of CHD5 tandem PHD1-2 (338-468), GST tag cleaved (Q8TDI0 338-468): as above
Chain of CHD5 PHD2 finger (413-468), GST tag cleaved (Q8TDI0 413-468): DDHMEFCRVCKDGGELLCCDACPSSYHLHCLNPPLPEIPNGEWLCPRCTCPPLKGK
Chain of CHD5 PHD1 finger (338-393), GST tag cleaved (Q8TDI0 338-393): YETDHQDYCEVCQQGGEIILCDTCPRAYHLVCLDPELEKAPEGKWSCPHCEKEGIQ

Binder	Kd [1]	koff [1]	kon [1]	Kd [2]	koff [2]	kon [2]	Kd [3]	koff [3]	kon [3]	binding result [4]
B1	9.18 µM	0.00348 s⁻¹	379 ± 7 M⁻¹ s⁻¹	98.8 µM	0.0103 ± 0.0001 s⁻¹	104 ± 7 M⁻¹ s⁻¹	34.6 µM	0.0136 ± 0.0003 s⁻¹	393 ± 13 M⁻¹ s⁻¹	
B2										binds
